# Data reported in IntAct's records for PubMed 21102444.
# B1: Elongation factor 1 alpha-like protein (Saccharomyces cerevisiae), P32769 (parent)
# chain: MAYSDYSDGADDMPDFHDEGEFDDYLNDDEYDLMNEVFPTLKAQLQDYQGWDNLSLKLALFDNNFDLESTLAELKKTLKKKKTPKKPIAAANGSANVTQKLANISISQQRPNDRLPDWLDEEESEGERNGEEANDEKTVQRYYKTTVPTKPKKPHDISAFVKSALPHLSFVVLGHVDAGKSTLMGRLLYDLNIVNQSQLRKLQRESETMGKSSFKFAWIMDQTNEERERGVTVSICTSHFSTHRANFTIVDAPGHRDFVPNAIMGISQADMAILCVDCSTNAFESGFDLDGQTKEHMLLASSLGIHNLIIAMNKMDNVDWSQQRFEEIKSKLLPYLVDIGFFEDNINWVPISGFSGEGVYKIEYTDEVRQWYNGPNLMSTLENAAFKISKENEGINKDDPFLFSVLEIIPSKKTSNDLALVSGKLESGSIQPGESLTIYPSEQSCIVDKIQVGSQQGQSTNHEETDVAIKGDFVTLKLRKAYPEDIQNGDLAASVDYSSIHSAQCFVLELTTFDMNRPLLPGTPFILFIGVKEQPARIKRLISFIDKGNTASKKKIRHLGSKQRAFVEIELIEVKRWIPLLTAHENDRLGRVVLRKDGRTIAAGKISEITQ
# partner: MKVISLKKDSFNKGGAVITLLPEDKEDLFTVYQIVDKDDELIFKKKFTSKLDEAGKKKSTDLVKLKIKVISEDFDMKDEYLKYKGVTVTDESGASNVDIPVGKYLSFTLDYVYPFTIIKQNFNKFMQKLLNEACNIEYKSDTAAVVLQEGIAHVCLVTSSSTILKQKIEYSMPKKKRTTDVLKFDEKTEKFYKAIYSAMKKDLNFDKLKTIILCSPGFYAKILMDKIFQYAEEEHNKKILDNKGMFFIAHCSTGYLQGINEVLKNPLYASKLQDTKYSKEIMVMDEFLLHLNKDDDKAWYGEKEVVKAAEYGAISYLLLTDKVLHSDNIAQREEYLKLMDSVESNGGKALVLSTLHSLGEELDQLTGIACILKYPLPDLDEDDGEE
# B2: Protein DOM34 (Saccharomyces cerevisiae), P33309 (parent)
# chain: B1 partner
# partner: B1 chain
# Variants of: B1
# Conditions: with dom34_yeast DOM34, P33309
row,Variant,effect of a mutation on the interaction
1,R517E,disrupting interaction
2,R256A;D257A;F258A,disrupting interaction
3,L520R,disrupting interaction
4,R557A;H558A,disrupting interaction

# Variants of: B2
# Conditions: with hbs1_yeast HBS1, P32769
row,Variant,effect of a mutation on the interaction
1,MKVISLKKDSFNKGGAVITLLPEDKEDLFTVYQIVDKDDELIFKKKFTSKLDEAGKKKSTDLVKLKIKVISEDFDMKDEYLKYKGVTVTDESGASNVDIPVGKYLSFTLDYVYPFTIIKQNFNKFMQKLLNEACNIEYKSDTAAVVLQEGIAHVCLVTSSSTILKQKIEYSMPKKKRTTDVLKFDEKTEKFYKAIYSAMKKDLNFDKLKTIILCAAGAYAKILMDKIFQYAEEEHNKKILDNKGMFFIAHCSTGYLQGINEVLKNPLYASKLQDTKYSKEIMVMDEFLLHLNKDDDKAWYGEKEVVKAAEYGAISYLLLTDKVLHSDNIAQREEYLKLMDSVESNGGKALVLSTLHSLGEELDQLTGIACILKYPLPDLDEDDGEE [S215A;P216A;F218A],disrupting interaction
2,MKVISLKKDSFNKGGAVITLLPEDKEDLFTVYQIVDKDDELIFKKKFTSKLDEAGKKKSTDLVKLKIKVISEDFDMKDEYLKYKGVTVTDESGASNVDIPVGKYLSFTLDYVYPFTIIKQNFNKFMQKLLNEACNIEYKSDTAAVVLQEGIAHVCLVTSSSTILKQKIEYSMPKKKRTTDVLKFDEKTEKFYKAIYSAMKKDLNFDKLKTIILCSPGFYAKILMDKIFQYAEEEHNKKILDNKGMFFIAHCSTGYLQGINEVLKNPLYASKLQDTKYSKEIMVMDEFLLHLNKDDDKAWYGEKEVVKAAEYGAISYLLLTDKVLHSDNIAQREEYLKLMDSVESNGGKALVLSTLHSLGEALDALTGIACILKYPLPDLDEDDGEE [E361A;Q364A],disrupting interaction
3,MKVISLKKDSFNKGGAVITLLPEDKEDLFTVYQIVDKDDELIFKKKFTSKLDEAGKKKSTDLVKLKIKVISEDFDMKDEYLKYKGVTVTDESGASNVDIPVGKYLSFTLDYVYPFTIIKQNFNKFMQKLLNEACNIEYKSDTAAVVLQEGIAHVCLVTSSSTILKQKIEYSMPKKKRTTDVLKFDEKTEKFYKAIYSAMKKDLNFDKLKTIILCSPGFYAKILMDKIFQYAEEEHNKKILDNKGMFFIAHCSTGYLQGINEVLKNPLYASKLQDTKYSKEIMVMDEFLLHLNKDDDKAWYGEKEVVKAAEYGAISYLLLTDKVLHSDNIAQREEYLKLMDSVESNGGKALVLSTLHSLGERLDQLTGIACILKYPLPDLDEDDGEE [E361R],disrupting interaction
4,MKVISLKKDSFNKGGAVITLLPEDKEDLFTVYQIVDKDDELIFKKKFTSKLDEAGKKKSTDLVKLKIKVISEDFDMKDEYLKYKGVTVTDESGASNVDIPVGKYLSFTLDYVYPFTIIKQNFNKFMQKLLNEACNIEYKSDTAAVVLQEGIAHVCLVTSSSTILKQKIEYSMPKKKRTTDVLKFDEKTEKFYKAIYSAMKKDLNFDKLKTIILCSPGFYAKILMDKIFQYAEEEHNKKILDNKGMFFIAHCSTGYLQGINEVLKNPLYASKLQDTKYSKEIMVMDEFLLHLNKDDDKAWAGEKEVVKAAEYGAISYLLLTDKVLHSDNIAQREEYLKLMDSVESNGGKALVLSTLHSLGEALDQLTGIACILKYPLPDLDEDDGEE [Y300A;E361A],disrupting interaction
5,MKVISLKKDSFNKGGAVITLLPEDKEDLFTVYQIVDKDDELIFKKKFTSKLDEAGKKKSTDLVKLKIKVISEDFDMKDEYLKYKGVTVTDESGASNVDIPVGKYLSFTLDYVYPFTIIKQNFNKFMQKLLNEACNIEYKSDTAAVVLQEGIAHVCLVTSSSTILKQKIEYSMPAAAATTDVLKFDEKTEKFYKAIYSAMKKDLNFDKLKTIILCSPGFYAKILMDKIFQYAEEEHNKKILDNKGMFFIAHCSTGYLQGINEVLKNPLYASKLQDTKYSKEIMVMDEFLLHLNKDDDKAWYGEKEVVKAAEYGAISYLLLTDKVLHSDNIAQREEYLKLMDSVESNGGKALVLSTLHSLGEELDQLTGIACILKYPLPDLDEDDGEE [K174A;K175A;K176A;R177A],disrupting interaction
